Source: publication doi:10.1101/2024.04.19.590298 (bioRxiv, 2024)

Key:
[1] = target: T1, recombinant SARS-CoV-2 nucleocapsid protein (SARS-CoV-2 (reference sequence …, UniProt P0DTC9)); assay: ELISA; peptide competition ELISA: plate coated with 0.1 ug/ml recombinant NP overnight at 4°C; 40 μL mBG17 pre-incubated 1 h at room temperature with 40 μg (approximately 30 nMol) of a single peptide, then applied to the plate 1 h at room temperature; goat anti-mouse HRP, A450; triplicate; conditions: both partners purified
T1 construct: SARS-CoV-2 nucleocapsid protein; also called NP; SARS-CoV-2 NP

[2] = target: T2, Nucleocapsid a. a. 401–410 (Frag 5) (SARS-CoV-2 (YP_009724397 reference)); assay: as above; conditions: both partners purified
T2 construct: SARS-CoV-2 nucleocapsid protein, residues 401-410; also called Fragment 5; WT (a.a. 401–410) peptide; source: synthetic peptide (Thermo Scientific)
T2 chain: DDFSKQLQQS

B1: anti-SARS-CoV-2 nucleocapsid protein (NP) monoclonal mouse antibody mBG17 (recombinant) (antibody, V domains shown)
VH: EVKLEESGGGLVQPGGSMKFSCVASGFTFSDYWMNWVRQSPDKGLEWVAEIRLKSNNYATHYAASVKGRFTISRDDSKSSVYLQMNNLRAEDSGIYYCTRSAMDYWGQGTSVTVSS
VL: DIVMSQSPSSLAVSVGEKITMSCKSSQSLLYTSDQKNYLAWFQQKPGQSPKLLIFWASTRDSGVPDRFTGSGSGTDFTLTISSVKAEDLAVYYCQQFYNYPRTFGGGTKLEIK
notes: Whole antibody, detected with goat anti-mouse HRP; The scFv forms were used in calculations only; also called recombinant mBG17
[1]
  binding result: binds
[2]
  binding result: binds
